Molecular target: cynomolgus Lag3 on cells (HEK293F cells transiently transfected with cyno-LAG-3; activated cynomolgus PBMC/T cells) (cynomolgus)
Experiment: flow cytometry on CD3/CD28-activated cynomolgus PBMC, antibody at 10 ug/ml

percentage of Lag3 positive cells: 9.19%
Substance: DP47 (human isotype) (antibody)

Reference: patent US20250313629A1
